This is an account of results in a protein production outcome set (Wang et al. 2014).

The data set can be described thus: label from the status in PepcDB records.
Regarding “INRRRDSKQMTEHNLSVVNTATLYIVPTPIGNLGDITQRAIEVLKSVDLIAAEDTRHTGKLLSHFGIASQTFALHDHNEQHKADLLISKLQQGLSIALVSDAGTPLISDPGYHLVNRCRQANVNVVPLPGA”, the protein production entry was “failed”.
In the case of “MTTLTRQDLNFGQVVADVLSEFLEVAVHLILYVREVYPVGIFQKRKKYNVPVQMSCHPELNQYIQDTLHCVKPLLEKNDVEKVVVVILDKEHRPVEKFVFEITQPPLLSINSDSLLSHVEQLLRAFILKISVCDAVLDHNPPGCTFTVLVHTREAATRNMEKIQVIKDFPWILADEQDVHMHDPRLIPLKTMTSDILKMQLYVEERAHKNS”, the protein production result is given as “not failed”.
Take “MPDWVTGTWLLALDWAIRLAALLWIPARTTPGAARSWLLLIGFVPVVGLPLYLLFGHPWLSRLRVERQATASQVIREQQLPLHALRWMPQADTSSAEVVPLIEREGDFMPTLGNAVELLDDYAQSLQALIAAIDAADKRVHLLYYLMFDDAVGEAVVVALERASARGVRCRVLLDAVGAKRGLRRYRKRLQDGGVQVLAVLPGGLRWRRSGRMDLRNHRKIAVLDNRVAFVGSQNLAEAGFIDGVPNRELVARVRGPVVNHLEAVFASDWFTETGERLDVWPDAPVCEANIATQLLPSGPAYPFENARDAINAVIHLARRKVVLVTPYFVPDEALLSALRIAPVSGVDVQLILSEHNNQRLAAWAQEAYFEELLRCGVKIALYRPHFLHAKHLSMDEDIALVGSINLDIRSFALNAEIGMLCYDTGVVQRLREIEQDYLANARQLTLEQWRRRPAWRRSREGIARLADALM”: the protein production entry is reported as “failed”.
On to “MGKTMITRALWSYAHRYRPQERWGILKPMQSGTAVEIGDGDYYCQTLPLEQTPREVCPLSFAAPLAPPIAAQLENRRIDLAPLWQTYQQLQERFDYLLVEGIGGLGSPITWEWTVADLAAAWKLPIVLVATVRLGAIAQIVANIALARQYQLVIRGLILNCVSPCSDAEIEQWTPPVFLSRFTQVPVLGVLPYGQHSNEQLAAMVAEWPLDLLWR”, for which the protein production result was “failed”.
In the case of “NIYDSANELSRGLRGLPEYKAVKAAKDAIAADAEASKIFTDYLAFQEEIQKLAQTGQMPDASFQAKMEGFGKQIQGNSLLSEFFTKQQQLAIYLSDIEKIVFEPVSEL” it was “failed”; in that of “PLPNPEGLDSDFLAVLSDYPSPDISPPIFRRGEKLRVISDEGGWWKAISLSTGRESYIPGICVARV”, “not failed”; in that of “MGSLMSGWDSRVRDPKSVRRCKSLTREEIDTFWKTKKKNEEEEHVQAFSKLVTQEGAQSQAKEKKSVDDLFENQSKSSGWWRKTYWAFLNEPREEEGRPNNYVSQFKVAHIAKIAGS”, “failed”.
As to “MNTFPWLTTIILLPIVAALFIPIIPDKDGKTVRWYSLAVGLVDFALIVYAFYSGFDLSEPGLQLVESYTWLPQIDLKWSVGADGLSMPLIILTGFITTLATMAAWPVTLKPKLFYFLMLLMYGGQIAVFAVQDILLFFLVWELELVPVYLILSIWGGKKRLYAATKFILYTAGGSLFILLAGLTLAFYGDVNTFDMSAIAAKDIPVNLQLLLYAGFLIAYGVKLPIFPLHTWLPDAHGEATAPAHMLLAGILLKMGGYALLRMNVGMLPDAHAVFAPVLVILGVVNIIYAAFTSFAQRNLKRKIAYSSISHMGFVLIGLASFTDLGMSGAMLQMISHGLIGASLFFMVGATYDRTHTLMLDEMGGIGQKMKKGFAMWTACSLASLALPGMSGFVAELMVFVGFATSDAYNLVFRTIVVVLMGVGVILTPIYLLSMLREMLYGPENEELVNHTNLVDVEPREVFIIGCLLVPIIGIGFYPKLITQIYDPTINQLVQTARRSVPSLVQQANLSPLEVTALRPPTIGF”, the protein production result is “failed”.
As for “MGEYYHATVNGVVEYGAFVDLSEHVSGLIHESTYSGDPDLAVDDDVIVHLSAVRDNGDLSFEFVDPEEYRTEQRSLEHHHHHH”, the protein production entry was “failed”.
For “MELGAYRWKAPVGYLDEYVKSFRERKIIGSLCASCGRVYVPPREICARCFTETAEKVEVSQYGEVLAFLVSPPLEKGKVVIAGIDAVQAGFLKEGEQIILAMVRFEGTSSSLVLPLINTEPEKVRVGMKVKAVWAEECKGKLADLIGVEPAFEVIYKLEHHHHHH”, the protein production result is given as “failed”.
